US20240279325A1 (Chugai, published 2024)
Changes are numbered by the printed parent chain. Values belong to the binder of their own block, whether it stands above or below them.

Assays:
[1] = target: T1, mouse FcγRI (mouse, UniProt P26151 25-297); assay: SPR (Biacore), method of Reference Example 2
T1 construct: extracellular domain; also called mFcγRI
T1 sequence (looked up): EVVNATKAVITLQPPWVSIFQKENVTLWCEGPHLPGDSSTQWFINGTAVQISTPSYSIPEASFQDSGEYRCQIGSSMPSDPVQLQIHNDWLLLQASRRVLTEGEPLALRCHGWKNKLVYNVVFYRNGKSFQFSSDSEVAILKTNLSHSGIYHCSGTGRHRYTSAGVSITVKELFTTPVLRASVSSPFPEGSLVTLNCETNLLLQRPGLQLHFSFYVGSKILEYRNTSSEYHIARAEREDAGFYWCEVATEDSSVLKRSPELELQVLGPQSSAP

[2] = target: T2, mouse FcγRIV (mouse, UniProt A0A0B4J1G0 21-203); assay: SPR (Biacore), method of Reference Example 2
T2 construct: also called mFcγRIV; not shown: purification tag of the soluble receptor (probably a His tag)
T2 sequence: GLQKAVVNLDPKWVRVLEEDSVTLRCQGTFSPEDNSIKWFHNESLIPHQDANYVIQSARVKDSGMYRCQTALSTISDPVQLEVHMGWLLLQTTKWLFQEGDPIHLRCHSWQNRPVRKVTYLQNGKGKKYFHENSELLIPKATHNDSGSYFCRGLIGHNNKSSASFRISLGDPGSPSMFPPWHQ

[3] = target: T3, human FcγRIIa type R (allotype R131) extracellular domain with C-terminal His tag (human, UniProt P12318 34-217); assay: SPR (Biacore), captured antibody, FcγR analyte
T3 construct: extracellular domain; also called FcγRIIaR; FrgRIIaR
T3 sequence (looked up): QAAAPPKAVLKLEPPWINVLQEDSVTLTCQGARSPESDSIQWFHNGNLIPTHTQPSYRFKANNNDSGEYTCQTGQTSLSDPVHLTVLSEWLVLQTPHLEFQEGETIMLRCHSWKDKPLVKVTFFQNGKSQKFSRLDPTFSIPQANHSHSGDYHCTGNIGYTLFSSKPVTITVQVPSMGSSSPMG

[4] = target: T4, human FcγRIa extracellular domain with C-terminal His tag (human, UniProt P12314 16-292); assay: SPR (Biacore), captured antibody, FcγR analyte
T4 construct: extracellular domain; also called FrgRIa

[5] = target: T5, human FcγRIIIa type V (allotype V158) extracellular domain with C-terminal His tag (human, UniProt P08637 17-208); assay: SPR (Biacore), captured antibody, FcγR analyte
T5 construct: extracellular domain; also called FcγRIIIaV; FrgRIIIaV
T5 sequence (P08637 17-208 F176V): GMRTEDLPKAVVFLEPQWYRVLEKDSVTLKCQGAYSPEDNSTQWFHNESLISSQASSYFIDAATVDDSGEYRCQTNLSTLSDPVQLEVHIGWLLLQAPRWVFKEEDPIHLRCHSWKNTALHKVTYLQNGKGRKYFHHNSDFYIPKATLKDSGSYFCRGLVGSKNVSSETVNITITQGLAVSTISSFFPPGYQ

[6] = target: T6, human FcγRIIa type H (allotype H131) extracellular domain with C-terminal His tag (human, UniProt P12318 34-217); assay: SPR (Biacore), captured antibody, FcγR analyte
T6 construct: extracellular domain; also called FcγRIIaH; FrgRIIaH
T6 sequence (looked up): T3 sequence (looked up) with R134H

[7] = target: T7, human FcγRIIa type H (allotype H131) extracellular domain with C-terminal His tag (human, UniProt P12318 34-217); assay: SPR (Biacore), antibody captured, FcγR analyte
T7 construct: extracellular domain; also called FcγRIIaH; not shown: His tag at the C terminus
T7 sequence (looked up): T3 sequence (looked up) with R134H

[8] = target: T8, human FcγRIIIa type V (allotype V158) extracellular domain with C-terminal His tag (human, UniProt P08637 17-208); assay: SPR (Biacore), antibody captured, FcγR analyte
T8 construct: extracellular domain; also called FcγRIIIaV; FcγRIIIa V type; not shown: His tag at the C terminus
T8 sequence (P08637 17-208 F176V): as above

[9] = target: T9, FcγRIIa type R (allotype R131) extracellular domain with C-terminal His tag (human, UniProt P12318 34-217); assay: SPR; KD of IL6R-B3/IL6R-L divided by KD of the variant
T9 construct: extracellular domain; also called FcγRIIaR; FcγRIIa R type
T9 sequence (looked up): T3 sequence (looked up)

[10] = target: T10, FcγRIIb extracellular domain with C-terminal His tag (human, UniProt P31994 43-217); assay: as above
T10 construct: extracellular domain
T10 sequence (looked up): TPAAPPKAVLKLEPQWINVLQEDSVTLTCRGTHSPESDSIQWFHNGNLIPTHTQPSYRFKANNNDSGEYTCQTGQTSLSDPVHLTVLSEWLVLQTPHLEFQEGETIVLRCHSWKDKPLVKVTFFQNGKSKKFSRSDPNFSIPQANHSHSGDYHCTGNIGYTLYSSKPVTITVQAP

[11] = target: T10, FcγRIIb extracellular domain with …; assay: SPR; KD for FcγRIIaH divided by KD for FcγRIIb
[12] = target: T11, FcγRIIa type H (allotype H131) extracellular domain with C-terminal His tag (human, UniProt P12318 34-217); assay: SPR (Biacore), antibody captured, FcγR as analyte
T11 construct: extracellular domain; also called FcγRIIaH; FcγRIIa H type
T11 sequence (looked up): T3 sequence (looked up) with R134H

[13] = target: T10, FcγRIIb extracellular domain with …; assay: SPR; KD for FcγRIIaR divided by KD for FcγRIIb
[14] = target: T12, human FcγRIIa type R (allotype R131) extracellular domain with C-terminal His tag (human, UniProt P12318 34-217); assay: SPR (Biacore), antibody captured, FcγR analyte
T12 construct: extracellular domain; also called FcγRIIaR; not shown: His tag at the C terminus
T12 sequence (looked up): T3 sequence (looked up)

[15] = target: T7, human FcγRIIa type H (allotype H131) …; assay: SPR (Biacore), antibody captured, FcγR analyte; remark: listed apart in the source
[16] = target: T13, human FcγRIIa type H (allotype H131) extracellular domain with C-terminal His tag (human, UniProt P12318 34-217); assay: SPR (Biacore), captured antibody, FcγR analyte
T13 construct: also called FcγRIIaH
T13 sequence: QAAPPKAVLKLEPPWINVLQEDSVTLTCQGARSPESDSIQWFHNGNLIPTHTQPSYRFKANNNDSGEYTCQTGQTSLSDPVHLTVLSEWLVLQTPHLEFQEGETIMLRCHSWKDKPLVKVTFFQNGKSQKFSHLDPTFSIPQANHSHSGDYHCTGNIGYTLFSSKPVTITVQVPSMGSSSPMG

T4 sequence (P12314 16-292): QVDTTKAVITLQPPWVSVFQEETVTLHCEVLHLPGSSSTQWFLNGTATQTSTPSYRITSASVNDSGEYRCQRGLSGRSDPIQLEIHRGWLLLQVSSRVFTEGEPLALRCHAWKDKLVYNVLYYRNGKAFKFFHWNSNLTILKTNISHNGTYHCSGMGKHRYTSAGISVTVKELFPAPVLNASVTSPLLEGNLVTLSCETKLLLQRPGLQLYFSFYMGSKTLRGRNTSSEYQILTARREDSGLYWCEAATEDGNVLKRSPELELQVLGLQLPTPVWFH

B1: VH3/L(WT)-mIgG1-mF44 (antibody)
heavy: QVQLQESGPGLVKPSETLSLTCAVSGHSISHDHAWSWVRQPPGEGLEWIGFISYSGITNYNPSLQGRVTISRDNSKNTLYLQMNSLRAEDTAVYYCARSLARTTAMDYWGEGTLVTVSSAKTTPPSVYPLAPGSAAQTNSMVTLGCLVKGYFPEPVTVTWNSGSLSSGVHTFPAVLQSDLYTLSSSVTVPSSTWPSETVTCNVAHPASSTKVDKKIVPRDCGCKPCICTVPEVSSVFIFPPKPKDVLTITLTPKVTCVVVDISKDDPEVQFSWFVDDVEVHTAQTQPREEQFNSTFRSVSELPIMHQDWLNGKEFKCRVNSADFPAPIEKTISKTKGRPKAPQVYTIPPPKEQMAKDKVSLTCMITDFFPEDITVEWQWNGQPAENYKNTQPIMDTDGSYFVYSKLNVQKSNWEAGNTFTCSVLHEGLHNHHTEKSLSHSPGK
light: not shown
notes: copies: 2 + 2
binding result [1]: no binding | binding result [2]: no binding

B4: IL6R-BP195/IL6R-L (antibody, human IgG1, kappa, name in EU numbering)
heavy: QVQLQESGPGLVKPSETLSLTCAVSGHSISHDHAWSWVRQPPGEGLEWIGFISYSGITNYNPSLQGRVTISRDNSKNTLYLQMNSLRAEDTAVYYCARSLARTTAMDYWGEGTLVTVSSASTKGPSVFPLAPSSKSTSGGTAALGCLVKDYFPEPVTVSWNSGALTSGVHTFPAVLQSSGLYSLSSVVTVPSSSLGTQTYICNVNHKPSNTKVDKKVEPKSCDKTHTCPPCPAPDYLGDDSVFLFPPKPKDTLMISRTPEVTCVVVDVSDEDGEVKFNWYVDGVEVHNAKTKPREEQDNSTYRVVSVLTVLHQDWLNGKEYKCKVSNAALPKPIEKTISKAKGQPREPQVYTLPPSRDELTKNQVSLTCLVKGFYPSDIAVEWESNGQPENNYKTTPPVLDSDGSFFLYSKLTVDKSRWQQGNVFSCSVMHEALHNHYTQESLSLSP
light: not shown
notes: Alterations introduced into IL6R-B3, EU numbering; copies: 2 + 2
relative binding activity [3]: 661 % of IL6R-BF648/IL6R-L binding | relative binding activity [4]: 68 % of IL6R-BF648/IL6R-L binding | relative binding activity [5]: 221 % of IL6R-BF648/IL6R-L binding | relative binding activity [6]: 344 % of IL6R-BF648/IL6R-L binding

B5: IL6R-BP234/IL6R-L (antibody, human IgG1, kappa, name in EU numbering)
heavy: B4 heavy with S269Q, A328D
light: not shown
notes: EU numbering; copies: 2 + 2
Kd [7]: 20 µM

B6: IL6R-BP231/IL6R-L (antibody, human IgG1, kappa, name in EU numbering)
heavy: B4 heavy with D235E, Y236L, A328K, K332R
light: not shown
notes: EU numbering; copies: 2 + 2
Kd [8]: 40 µM

B7: IL6R-BP243/IL6R-L (antibody, human IgG1, kappa, name in EU numbering)
heavy: B4 heavy with D298Y, A328K, K332R
light: not shown
notes: EU numbering; copies: 2 + 2
Kd [7]: 6 µM

B9: IL6R-BP200/IL6R-L (antibody, human IgG1, kappa, name in EU numbering)
heavy: B4 heavy with D270H, D298Y, A328D, K332R
light: not shown
notes: EU numbering; copies: 2 + 2
Kd [14]: 0.68 µM | Kd [15]: 42 µM

B11: IL6R-BP447/IL6R-L (antibody, human IgG1, kappa, name in EU numbering)
heavy: B4 heavy with Y236L, S269A, D270E, D298Y, A328K, K332R, P398A
light: not shown
notes: copies: 2 + 2
Kd [16]: 2 µM

B12: IL6R-BP183/IL6R-L (antibody, human IgG1, kappa, name in EU numbering)
heavy: B4 heavy with D239G, D270H, D298Y
light: not shown
notes: EU numbering; copies: 2 + 2
Kd [14]: 1.6 µM

B14: IL6R-BP206/IL6R-L (antibody, human IgG1, kappa, name in EU numbering)
heavy: B4 heavy with Y236L, D239G, D270H, D298Y, A328K, K332R
light: not shown
notes: EU numbering; copies: 2 + 2
Kd [14]: 5.1 µM

B16: IL6R-BP184/IL6R-L (antibody, human IgG1, kappa, name in EU numbering)
heavy: B4 heavy with Y236L, D239G, D270H, D298Y, A328K
light: not shown
notes: EU numbering; copies: 2 + 2
Kd [14]: 1.3 µM

B17: IL6R-BP238/IL6R-L (antibody, human IgG1, kappa, name in EU numbering)
heavy: B4 heavy with K332R
light: not shown
notes: EU numbering; copies: 2 + 2
Kd [7]: 7 µM

B18: IL6R-BP241/IL6R-L (antibody, human IgG1, kappa, name in EU numbering)
heavy: B4 heavy with Y236L, D298Y, A328D, K332R
light: not shown
notes: EU numbering; copies: 2 + 2
Kd [7]: 9 µM

B19: IL6R-BP217/IL6R-L (antibody, human IgG1, kappa, name in EU numbering)
heavy: B4 heavy with D235E, Y236L, S269Q, A328K
light: not shown
notes: EU numbering; copies: 2 + 2
Kd [8]: 60 µM

Second part, the binder after the results:

binding result [1]: no binding | binding result [2]: no binding
B2: VH3/L(WT)-mIgG1-mF46 (antibody)
heavy: B1 heavy with S235D
light: not shown
notes: copies: 2 + 2

binding result [1]: no binding | binding result [2]: no binding
B3: VH3/L(WT)-mIgG1 (antibody)
heavy: B1 heavy with D323A
light: not shown
notes: mouse IgG1 constant region; copies: 2 + 2

KD(IIaR) OF PARENT POLYPEPTIDE/KD(IIaR) OF ALTERED POLYPEPTIDE [9]: 2.4 | KD(IIb) OF PARENT POLYPEPTIDE/KD(IIb) OF ALTERED POLYPEPTIDE [10]: 127 | KD(IIaH)/KD(IIb) [11]: 658 | Kd [12]: 15 µM | KD(IIaR)/KD(IIb) [13]: 18.5
B8: IL6R-BP504/IL6R-L (antibody, human IgG1, kappa, name in EU numbering)
heavy: B4 heavy with Y236L, V266I, S269A, D270E, E274P, D298Y, A328K, K332A
light: not shown
notes: copies: 2 + 2

Kd [16]: 2 µM
B10: IL6R-BP451/IL6R-L (antibody, human IgG1, kappa, name in EU numbering)
heavy: B4 heavy with Y236L, S269A, D270E, D298Y, A328K, K332R, P398G
light: not shown
notes: copies: 2 + 2

Kd [16]: 2 µM
B13: IL6R-BP456/IL6R-L (antibody, human IgG1, kappa, name in EU numbering)
heavy: B4 heavy with Y236L, S269A, D270E, D298Y, A328K, K332R, P398M
light: not shown
notes: copies: 2 + 2

KD(IIaR) OF PARENT POLYPEPTIDE/KD(IIaR) OF ALTERED POLYPEPTIDE [9]: 14.8 | KD(IIb) OF PARENT POLYPEPTIDE/KD(IIb) OF ALTERED POLYPEPTIDE [10]: 1680 | KD(IIaH)/KD(IIb) [11]: 865 | Kd [12]: 1.5 µM | KD(IIaR)/KD(IIb) [13]: 40.1
B15: IL6R-BP488/IL6R-L (antibody, human IgG1, kappa, name in EU numbering)
heavy: B4 heavy with Y236L, V266I, S269A, D270E, A328K, K332R
light: not shown
notes: copies: 2 + 2
